Results: PMC5794963, “Link between the causative genes of holoprosencephaly: Zic2 directly regulates Tgif1 expression”

Legend:
F-HA-Zic2 [1] = molecular target: T1, F-HA-Zic2 (UniProt Q62520 1-530); experiment: competition; against N1; shifted bands disappear completely; Footprinting: 20 mM Tris-HCl pH 8.0, 3 mM MgCl2, 5 mM CaCl2, 100 mM NaCl, 100 mM DTT, 0.1 mM EDTA, 50 ug/ml BSA, 25 C, 30 min; EMSA conditions as in earlier work; conditions: protein: recombinant; tags: N-terminal FLAG-HA; label: none
T1 sequence (Q62520 whole entry): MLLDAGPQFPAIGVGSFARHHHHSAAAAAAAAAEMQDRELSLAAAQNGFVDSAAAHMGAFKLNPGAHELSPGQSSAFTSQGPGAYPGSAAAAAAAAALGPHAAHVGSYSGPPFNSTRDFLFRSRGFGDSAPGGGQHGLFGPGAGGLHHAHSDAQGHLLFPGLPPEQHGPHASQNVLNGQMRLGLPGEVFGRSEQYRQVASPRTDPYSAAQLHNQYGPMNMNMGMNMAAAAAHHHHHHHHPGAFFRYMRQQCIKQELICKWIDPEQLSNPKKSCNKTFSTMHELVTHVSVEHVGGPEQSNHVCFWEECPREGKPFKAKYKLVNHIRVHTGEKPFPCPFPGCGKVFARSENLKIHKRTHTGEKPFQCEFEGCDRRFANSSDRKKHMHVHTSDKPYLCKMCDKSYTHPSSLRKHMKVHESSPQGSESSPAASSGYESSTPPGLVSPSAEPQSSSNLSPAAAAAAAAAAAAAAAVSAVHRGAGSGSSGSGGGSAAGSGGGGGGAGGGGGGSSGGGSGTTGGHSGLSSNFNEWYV

F-HA-Zic2 [2] = molecular target: T1, F-HA-Zic2; experiment: EMSA; even at 3-fold excess over ZBS core; Footprinting: 20 mM Tris-HCl pH 8.0, 3 mM MgCl2, 5 mM CaCl2, 100 mM NaCl, 100 mM DTT, 0.1 mM EDTA, 50 ug/ml BSA, 25 C, 30 min; EMSA conditions as in earlier work; conditions: protein: recombinant; tags: N-terminal FLAG-HA; blunt
GLI3-ZF-CH6 (GLI3 ZFD) = GLI3-ZF-CH6 (GLI3 ZFD) (UniProt P10071 480-632); experiment: EMSA; preferred over ZBS core; Footprinting: 20 mM Tris-HCl pH 8.0, 3 mM MgCl2, 5 mM CaCl2, 100 mM NaCl, 100 mM DTT, 0.1 mM EDTA, 50 ug/ml BSA, 25 C, 30 min; EMSA conditions as in earlier work; conditions: protein: recombinant; blunt
Sequence of GLI3-ZF-CH6 (GLI3 ZFD) (P10071 480-632): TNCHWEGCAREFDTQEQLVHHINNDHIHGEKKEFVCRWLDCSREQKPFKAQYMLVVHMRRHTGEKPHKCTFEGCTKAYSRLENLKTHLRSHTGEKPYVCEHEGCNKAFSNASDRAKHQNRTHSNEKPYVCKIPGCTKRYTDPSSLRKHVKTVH

F-HA-Zic2 [3] = molecular target: T1, F-HA-Zic2; experiment: competition; against N9; inhibits complex formation; Footprinting: 20 mM Tris-HCl pH 8.0, 3 mM MgCl2, 5 mM CaCl2, 100 mM NaCl, 100 mM DTT, 0.1 mM EDTA, 50 ug/ml BSA, 25 C, 30 min; EMSA conditions as in earlier work; conditions: protein: recombinant; tags: N-terminal FLAG-HA; label: none
F-HA-Zic2 [4] = molecular target: T1, F-HA-Zic2; experiment: competition; against N8; inhibits complex formation; Footprinting: 20 mM Tris-HCl pH 8.0, 3 mM MgCl2, 5 mM CaCl2, 100 mM NaCl, 100 mM DTT, 0.1 mM EDTA, 50 ug/ml BSA, 25 C, 30 min; EMSA conditions as in earlier work; conditions: protein: recombinant; tags: N-terminal FLAG-HA; label: none

B1: cp4 (-1728 to -1709) (dsDNA)
DNA 1: CCCGCACCACATGAGTCCCG
DNA 2: CGGGACTCATGTGGTGCGGG
B1: binds (F-HA-Zic2 [1]).

B2: GBS probe (dsDNA)
DNA 1: CGTCTTGGGTGGTCTCCCTC
DNA 2: GAGGGAGACCACCCAAGACG
B2: no binding (F-HA-Zic2 [2]); binds (GLI3-ZF-CH6 (GLI3 ZFD)).

B3: cp11 (-1830 to -1811) (dsDNA)
DNA 1: CCCGAGTCCCCGGCGGATGT
DNA 2: ACATCCGCCGGGGACTCGGG
B3: binds (F-HA-Zic2 [3]).

B4: cp8 (-1688 to -1669) (dsDNA)
DNA 1: GTCATCCCCTGCCGGGTCCC
DNA 2: GGGACCCGGCAGGGGATGAC
B4: binds (F-HA-Zic2 [4]).
